Experimental data taken from IntAct's records for PubMed 34029587.

What was measured:
anm1_human PRMT1 = anm1_human PRMT1 (UniProt Q99873)
G3BP1 = G3BP1 (UniProt Q13283)
Chain of UniProt Q13283 (Q13283 whole entry, looked up): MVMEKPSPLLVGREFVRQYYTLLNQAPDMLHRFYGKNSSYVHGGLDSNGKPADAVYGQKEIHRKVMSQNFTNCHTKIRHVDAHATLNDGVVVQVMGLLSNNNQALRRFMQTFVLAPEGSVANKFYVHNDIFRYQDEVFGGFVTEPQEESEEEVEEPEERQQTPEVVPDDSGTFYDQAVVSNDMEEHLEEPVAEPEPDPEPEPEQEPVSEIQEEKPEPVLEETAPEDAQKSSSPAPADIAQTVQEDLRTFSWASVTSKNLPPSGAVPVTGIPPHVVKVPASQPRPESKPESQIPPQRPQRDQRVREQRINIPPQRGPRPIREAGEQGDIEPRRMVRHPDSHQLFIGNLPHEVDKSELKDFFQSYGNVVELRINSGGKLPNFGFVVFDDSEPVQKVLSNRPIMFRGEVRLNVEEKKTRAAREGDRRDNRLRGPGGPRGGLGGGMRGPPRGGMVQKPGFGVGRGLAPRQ

Chain of UniProt Q99873 (Q99873 whole entry, looked up): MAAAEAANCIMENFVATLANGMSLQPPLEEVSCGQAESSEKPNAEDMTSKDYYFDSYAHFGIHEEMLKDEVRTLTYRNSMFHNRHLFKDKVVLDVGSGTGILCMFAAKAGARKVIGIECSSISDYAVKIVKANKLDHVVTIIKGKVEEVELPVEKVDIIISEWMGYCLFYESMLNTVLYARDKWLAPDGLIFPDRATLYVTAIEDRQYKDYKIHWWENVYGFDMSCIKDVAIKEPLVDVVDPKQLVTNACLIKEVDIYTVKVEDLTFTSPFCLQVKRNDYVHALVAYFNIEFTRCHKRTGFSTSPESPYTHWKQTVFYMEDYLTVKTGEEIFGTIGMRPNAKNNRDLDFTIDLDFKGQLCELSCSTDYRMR

| Substance | effect of a mutation on the interaction (anm1_human PRMT1) | effect of a mutation on the interaction (G3BP1) |
| --- | --- | --- |
| Nucleoprotein (SARS-CoV-2) (from UniProt P0DTC9) R68K | with no effect |  |
| Nucleoprotein (SARS-CoV-2) (from UniProt P0DTC9) R177K |  | with no effect |
| Nucleoprotein (SARS-CoV-2) (from UniProt P0DTC9) R203K | with no effect |  |
